This passage reports Kd results from article PMC3536884.

One may read the Kd as the free concentration of one partner at which half of the binding sites on the other are occupied at equilibrium, for simple one-to-one binding.

This assay deals with C9-tagged CCR5 (human) (UniProt P51681). Kind of assay: SPR. In general terms: In SPR one partner is held on a chip, and binding of the other changes the refractive index at the surface.
Sequence of UniProt P51681 (P51681 whole entry): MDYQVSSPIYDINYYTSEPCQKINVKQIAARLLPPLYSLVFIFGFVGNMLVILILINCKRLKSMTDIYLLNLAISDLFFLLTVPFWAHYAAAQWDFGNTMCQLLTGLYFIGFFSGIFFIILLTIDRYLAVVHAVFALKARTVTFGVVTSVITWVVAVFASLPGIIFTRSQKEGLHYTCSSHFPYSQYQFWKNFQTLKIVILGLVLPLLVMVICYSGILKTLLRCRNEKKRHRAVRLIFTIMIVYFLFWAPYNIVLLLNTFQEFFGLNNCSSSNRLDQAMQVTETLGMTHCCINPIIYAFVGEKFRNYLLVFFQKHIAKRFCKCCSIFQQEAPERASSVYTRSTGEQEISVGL

“LukE (leukotoxin ED subunit E), His-tagged (natural protein)”: the Kd was 0.0396 µM.
